Measured values from PMC3334931, “Characterization of the Single Stranded DNA Binding Protein SsbB Encoded in the Gonoccocal Genetic Island” (PLoS ONE, 2012).

T1: SsbB (native) (Neisseria gonorrhoeae MS11, UniProt Q5EP75 1-143)
T1 sequence: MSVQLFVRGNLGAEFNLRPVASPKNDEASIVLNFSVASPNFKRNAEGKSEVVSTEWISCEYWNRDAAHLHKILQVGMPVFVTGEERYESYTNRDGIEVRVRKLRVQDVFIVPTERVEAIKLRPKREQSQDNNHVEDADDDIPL


How the values were obtained:
SsbB (native) [1] = target: T1, SsbB (native); experiment: EMSA; SBA buffer; (SsbB)4 concentration; one and two tetramer complexes; EMSA: SBA buffer (10 mM NaOH, 2 mM EDTA, boric acid to pH 7.5), optional 10 mM MgCl2 and/or NaCl up to 500 mM, 4 C 15 min; AFM: 20 mM Tris pH 7.5, 150 mM NaCl; conditions: protein: recombinant; tags: none; chain copies: 4; label: 5' 32P
SsbB (native) [2] = target: T1, SsbB (native); experiment: EMSA; stoichiometric at 8 nM DNA; 1 tetramer per oligo; Cy3 raises affinity at least 10-fold; EMSA: SBA buffer (10 mM NaOH, 2 mM EDTA, boric acid to pH 7.5), optional 10 mM MgCl2 and/or NaCl up to 500 mM, 4 C 15 min; AFM: 20 mM Tris pH 7.5, 150 mM NaCl; conditions: protein: recombinant; tags: none; chain copies: 4; label: 5' Cy3
SsbB (native) [3] = target: T1, SsbB (native); experiment: tryptophan fluorescence titration; biphasic; 1 oligo per tetramer high affinity, second much weaker; EMSA: SBA buffer (10 mM NaOH, 2 mM EDTA, boric acid to pH 7.5), optional 10 mM MgCl2 and/or NaCl up to 500 mM, 4 C 15 min; AFM: 20 mM Tris pH 7.5, 150 mM NaCl; conditions: protein: recombinant; tags: none; chain copies: 4
[4] = target: the molecule itself; experiment: SEC; gel filtration chromatography of the purified proteins; single peaks; data not shown
SsbB (native) [5] = target: T1, SsbB (native); experiment: EMSA (Coomassie); 1 uM tetramer, 0.25 uM oligo; minimal frame for two tetramers; EMSA: SBA buffer (10 mM NaOH, 2 mM EDTA, boric acid to pH 7.5), optional 10 mM MgCl2 and/or NaCl up to 500 mM, 4 C 15 min; AFM: 20 mM Tris pH 7.5, 150 mM NaCl; conditions: protein: recombinant; tags: none; chain copies: 4
SsbB (native) [6] = target: T1, SsbB (native); experiment: EMSA (Coomassie); 1 uM tetramer, 5 uM oligo; minimal frame for one tetramer; EMSA: SBA buffer (10 mM NaOH, 2 mM EDTA, boric acid to pH 7.5), optional 10 mM MgCl2 and/or NaCl up to 500 mM, 4 C 15 min; AFM: 20 mM Tris pH 7.5, 150 mM NaCl; conditions: protein: recombinant; tags: none; chain copies: 4

Binder	binding result (SsbB (native) [3])	stoichiometry N [4]	also measured
32P-dT75 (ssDNA) DNA: TTTTTTTTTTTTTTTTTTTTTTTTTTTTTTTTTTTTTTTTTTTTTTTTTTTTTTTTTTTTTTTTTTTTTTTTTTT	–	–	Kd (SsbB (native) [1]): ~100 nM
TTTTTTTTTTTTTTTTTTTTTTTTTTTTTTTTTTT (ssDNA) [Cy3-dT35]	–	–	binding result (SsbB (native) [2]): binds
TTTTTTTTTTTTTTTTTTTTTTTTTTTTTTTTTTT (ssDNA) [dT35]	binds	–	–
native SsbB (single stranded DNA binding protein SsbB encoded in the Gonococcal Genetic Island of Neisseria gonorrhoeae) (natural protein, UniProt Q5EP75 1-143, looked up, expressed as the native (untagged) protein; also called WT; GGI SSB; source: E. coli C43 (DE3), purified (Hi-Trap Q, DNA-cellulose, Superdex SD200)) MSVQLFVRGNLGAEFNLRPVASPKNDEASIVLNFSVASPNFKRNAEGKSEVVSTEWISCEYWNRDAAHLHKILQVGMPVFVTGEERYESYTNRDGIEVRVRKLRVQDVFIVPTERVEAIKLRPKREQSQDNNHVEDADDDIPL	–	4	–
OneSTrEP-tagged SsbB (natural protein, Neisseria gonorrhoeae, UniProt Q5EP75 1-143, looked up, source: E. coli C43 (DE3), purified (Strep-tactin Sepharose, Hi-Trap Q, Superdex SD200); not shown: OneSTrEP tag, N-terminal, kept) MSVQLFVRGNLGAEFNLRPVASPKNDEASIVLNFSVASPNFKRNAEGKSEVVSTEWISCEYWNRDAAHLHKILQVGMPVFVTGEERYESYTNRDGIEVRVRKLRVQDVFIVPTERVEAIKLRPKREQSQDNNHVEDADDDIPL	–	4	–
His-tagged SsbB (natural protein, Neisseria gonorrhoeae, UniProt Q5EP75 1-143, looked up, also called N- His- tagged SsbB; source: E. coli C43 (DE3), purified (Hi-Trap Chelating Ni, Hi-Trap Q, Superdex SD200); not shown: His tag, N-terminal, kept) MSVQLFVRGNLGAEFNLRPVASPKNDEASIVLNFSVASPNFKRNAEGKSEVVSTEWISCEYWNRDAAHLHKILQVGMPVFVTGEERYESYTNRDGIEVRVRKLRVQDVFIVPTERVEAIKLRPKREQSQDNNHVEDADDDIPL	–	4	–
dT70 (ssDNA) DNA: TTTTTTTTTTTTTTTTTTTTTTTTTTTTTTTTTTTTTTTTTTTTTTTTTTTTTTTTTTTTTTTTTTTTTT	–	–	binding result (SsbB (native) [5]): binds
TTTTTTTTTTTTTTTTTTTTTTTTTTTTTTTTTTTTTTTTTTTTT (ssDNA) [dT45]	binds	–	–
TTTTTTTTTTTTTTTTTTTTTTTTT (ssDNA) [dT25]	binds	–	–
TTTTTTTTTTTTTTT (ssDNA) [dT15]	–	–	binding result (SsbB (native) [6]): binds
